The Human Domainome abundance scans (Beltran et al. 2025)

B1: Tumor protein p73, residues 487 to 549; numbered along this chain, O15350 (parent)
chain: YHADPSLVSFLTGLGCPNCIEYFTSQGLQSIYHLQNLTIEDLGALKIPEQYRMTIWRGLQDLK

Variants of: B1
Assay: abundance fitness (aPCA) (normalised: wild type 0, dead -1); higher = more abundant; growth selection in yeast, the domain comes from the species named
Conditions: Homo sapiens

Abundance fitness: each site, then its substitutions
L45: C -0.016; A -0.18; N -0.224; W -0.345; D -0.609; T -0.076; S -0.272; K -0.216; M 0.023; R -0.241
I39: W -0.231; M -0.149
T54: I 0.025; L -0.01; K 0.06; R 0.02; A -0.034; H 0.071; S -0.042; Y -0.189; F -0.362; E -0.061; C -0.13; M -0.116; D -0.01; G -0.074; W -0.142; V 0.088; Q 0.028
E49: Q -0.045; A 0.007; V 0.009; T -0.036; Y -0.181; I -0.254; S -0.056; D 0.105; N 0.077; F -0.355; C -0.061; K -0.014; G -0.123; P 0.026; L -0.042; R 0.028; H -0.047
E40: G 0.053; M -0.127; K -0.141; Q -0.124; D -0.06; H -0.005; V -0.097; C 0.033; Y -0.215; P -0.152; R -0.059; A 0.007; S -0.048; W -0.085
D41: I -0.9; E 0.119; C -0.361; Y -0.45; N -0.042; R -0.052; V -0.644; Q 0.105; A -0.094; S 0; F -0.689; P -1.05; T -0.159; H -0.198; M -0.184; W -0.885; G 0.006
G43: Q 0.061; R -0.016; E 0.07; T 0.003; N -0.003; C -0.049; H 0.16; S -0.013; D -0.085; K 0.119; A -0.102; V -0.018; W -0.135; Y -0.005; L 0.033; I -0.135; P -0.012; M 0.028
P48: D -0.054; A -0.091; Q -0.208; Y -1.13; G -0.173; E -0.067; L -1.1; W -1.07; I -0.144; F -1.3; H -0.389; C -0.51; S -0.149; K -0.212; M -0.965; T -0.247; V -0.924; R -0.42; N -0.261
L37: I -0.058; S -0.142; C -0.089; F 0.02; Y 0.071; M 0.032; T -0.039; G -0.536; D -0.737; R -0.191; K 0.001; W -0.159; Q -0.41; P -0.799; N -0.426; H -0.063; E -0.667
A44: N -0.061; T -0.046; M 0.006; F 0.011; E 0.16; W -0.083; P -0.041; L 0.06; G 0.072; Q 0.036; K 0.057; Y -0.007; D 0.174; H -0.021; I -0.218; R 0.135; S 0.057; C 0.02
T38: N -0.11; P -0.201; A -0.014; K 0.103; R -0.049; S 0.018; E -0.107; M -0.13; Y -0.409; D -0.215; L -0.158; G -0.088; V -0.106; H -0.064; F -0.517; C -0.073; W -0.415; Q -0.018
